Laboratory results as given in patent US20220119534A1 (DRAGONFLY THERAPEUTICS, published 2022).
Numbering of substitutions follows the chain as printed. In names and notes the source's numbering stands. Several values for one entry are separate records, joined by “and”; a condition that tells them apart may be missing. Equal entries are not always repeated. Values belong to the binder of their own block, whether it stands above or below them.

What was measured:
mFc-hNKG2D [1] = target: T1, mFc-hNKG2D (human, UniProt P26718 73-216); assay: SPR Biacore 8K 37 C; mFc-hNKG2D captured on anti-mFc chip, TriNKET as analyte; 1:1 kinetic fit; after 2 wks 40 C at pH 5.0
T1 construct: extracellular domain; Made in house (Dragonfly Tx); the order of tag and ECD follows the name mFc-hNKG2D; also called mFc-tagged human NKG2D; not shown: mouse Fc tag
T1 sequence (looked up): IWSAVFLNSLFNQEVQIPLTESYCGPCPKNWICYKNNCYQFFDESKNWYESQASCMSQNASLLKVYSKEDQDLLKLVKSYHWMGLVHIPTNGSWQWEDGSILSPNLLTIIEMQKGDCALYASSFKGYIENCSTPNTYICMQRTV

Human CLEC12A-His = target: T2, Human CLEC12A-His (human, UniProt Q5QGZ9 65-265); assay: SPR; sample after pH 8.0, 40 C, 2 weeks
T2 construct: Recombinant soluble protein made in house; also called hCLEC12A-His; hCLEC12A; not shown: His tag
T2 sequence: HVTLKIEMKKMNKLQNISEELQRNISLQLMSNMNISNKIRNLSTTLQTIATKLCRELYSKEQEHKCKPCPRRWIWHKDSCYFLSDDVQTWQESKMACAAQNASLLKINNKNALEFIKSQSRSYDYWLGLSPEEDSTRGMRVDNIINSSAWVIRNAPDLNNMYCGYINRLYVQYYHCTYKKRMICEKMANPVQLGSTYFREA

Human CD16a V158 = target: T3, Human CD16a V158 (human, UniProt P08637 17-208, biotinylated); assay: SPR; sample after pH 8.0, 40 C, 2 weeks
T3 construct: Bought recombinant receptor; also called hCD16a (V158); hFcγRIIIa V158
T3 sequence (P08637 17-208 F176V limits assumed): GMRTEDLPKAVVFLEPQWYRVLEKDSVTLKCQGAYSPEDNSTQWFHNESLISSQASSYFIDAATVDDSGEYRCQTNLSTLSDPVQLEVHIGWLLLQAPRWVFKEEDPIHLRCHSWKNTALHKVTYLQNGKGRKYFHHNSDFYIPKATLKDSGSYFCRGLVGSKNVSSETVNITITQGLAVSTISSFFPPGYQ

mFc-hNKG2D [2] = target: T4, mFc-hNKG2D (human, UniProt P26718 73-216); assay: SPR; sample after pH 8.0, 40 C, 2 weeks
T4 construct: extracellular domain; Recombinant mFc-tagged NKG2D dimer, made in house; also called human NKG2D; not shown: mouse Fc tag
T4 sequence (looked up): T1 sequence (looked up)

De-glycosylated CLEC12A = target: T5, De-glycosylated CLEC12A (human, UniProt Q5QGZ9 65-265, treated with PNGase F (N-linked glycans removed)); assay: SPR, de-glycosylated CLEC12A; average of 3 replicates
T5 construct: Recombinant human CLEC12A after PNGase F; also called de-glycosylated hCLEC12A
T5 sequence: T2 sequence

[3] = target: T6, Human CLEC12A-His (recombinant, K244 WT) (human, UniProt Q5QGZ9 65-265); assay: SPR, two-state fit (ka1); control (fully purified protein study)
T6 construct: Made in house (Dragonfly Tx); also called hCLEC12A; hCLEC12A-His; not shown: His tag
T6 sequence: T2 sequence

[4] = target: T7, Human CD32a H131 (FcγRIIa H131) (human, UniProt P12318 36-218, limits assumed, biotinylated); assay: SPR 25C, biotinylated receptor captured on SA chip
T7 construct: Bought recombinant receptor; also called hFcγRIIa H131; FcgRIIa H131
T7 sequence (looked up): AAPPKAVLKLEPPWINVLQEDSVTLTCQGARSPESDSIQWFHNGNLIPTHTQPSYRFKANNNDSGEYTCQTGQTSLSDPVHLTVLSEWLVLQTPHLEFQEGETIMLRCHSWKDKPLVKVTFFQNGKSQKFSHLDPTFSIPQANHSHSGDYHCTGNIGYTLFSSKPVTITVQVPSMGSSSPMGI
Procedure: (§1) Human and cynomolgus CD64, high and low affinity alleles of CD16a (V158 and F158, respectively), two alleles of CD32a (H131 and R131), CD16b, CD32b and cynomolgus CD16 were captured via biotin on a primed (according to the manufacturers instruction) Biacore chip. […] Due to irreversibility of streptavidin-biotin interaction, the capture step for all receptors except FcγRI (CD64) was performed just once prior to the start of the binding experiment. hCD64 and cyno CD64 capture on the CAP chip surface was performed during each cycle in accordance with the manufacturer's instructions for the Biotin CAPture kit.

[5] = target: T8, Human CD32a R131 (FcγRIIa R131) (human, UniProt P12318 36-218, limits assumed, biotinylated); assay: SPR 25C, biotinylated receptor captured on SA chip
T8 construct: Bought recombinant receptor; also called hFcγRIIa R131; FcgRIIa R131
T8 sequence (looked up): T7 sequence (looked up) with H132R
Procedure: as §1

[6] = target: T6, Human CLEC12A-His (recombinant, K244 WT); assay: SPR, two-state fit; after 4 wks 40C in HST pH 6.0
Procedure: Briefly, human Fc specific antibodies were covalently immobilized at a density ˜8000-10000 resonance units (RU) on carboxy methyl dextran matrix of a CM5 biosensor chip via amine-coupling chemistry to create an anti-hFc IgG chip. […] Association was monitored for 300 seconds and dissociation was monitored for 600 seconds. Surfaces were regenerated between cycles with three pulses of 10 mM glycine-HCl, pH 1.7 injected for 20 seconds at 100 μl/min. HBS-EP+ (1×) with 0.1 mg/ml BSA was used as running buffer throughout the experiment. Experiments were performed at physiological temperature of 37° C. To obtain kinetic rate constants and overall binding affinity, double-referenced data were fit to a two-state kinetic model using Biacore 8K Insight Evaluation software (Cytiva).

Human CD16b (FcγRIIIb) = target: T9, Human CD16b (FcγRIIIb) (human, UniProt O75015 17-200, limits assumed, biotinylated); assay: SPR 25C, biotinylated CD16b captured
T9 construct: Bought recombinant receptor; also called hFcγRIIIb; CD16b (FcγR3b)
T9 sequence (O75015 17-200 limits assumed): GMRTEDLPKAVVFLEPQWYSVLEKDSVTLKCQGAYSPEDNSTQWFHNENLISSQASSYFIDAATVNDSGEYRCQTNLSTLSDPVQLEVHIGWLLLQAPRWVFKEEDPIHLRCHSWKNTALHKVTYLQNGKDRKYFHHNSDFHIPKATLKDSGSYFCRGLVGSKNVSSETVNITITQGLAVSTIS

[7] = target: T10, human CLEC12A expressed on cells (human, UniProt Q5QGZ9 1-265); assay: flow cytometry, hCLEC12A+ Ba/F3
T10 construct: Transduced isogenic cells or endogenous expression on AML cells; also called RMA-hCLEC12A; Ba/F3-hCLEC12A
T10 sequence: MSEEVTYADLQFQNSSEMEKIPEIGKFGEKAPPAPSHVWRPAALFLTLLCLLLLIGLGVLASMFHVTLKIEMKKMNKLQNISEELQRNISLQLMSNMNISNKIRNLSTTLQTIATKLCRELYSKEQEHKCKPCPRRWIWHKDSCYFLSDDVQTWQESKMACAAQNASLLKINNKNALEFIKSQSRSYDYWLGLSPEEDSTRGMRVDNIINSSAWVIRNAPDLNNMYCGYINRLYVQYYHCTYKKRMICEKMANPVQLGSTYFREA

[8] = target: T10, human CLEC12A expressed on cells; assay: flow cytometry, hCLEC12A+ Ba/F3; remark: listed apart in the source
HER2 = assay: SPR specificity test; unrelated recombinant antigen at up to 500 nM
BCMA = target: T11, BCMA; assay: as above
T11 chain: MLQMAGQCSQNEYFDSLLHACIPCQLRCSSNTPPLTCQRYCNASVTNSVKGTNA

CD33 = target: T12, CD33; assay: as above
T12 construct: recombinant protein

B1: F3'-1602 TriNKET (bispecific antibody, human IgG1, kappa)
chain: QLQLQESGPGLVKPSETLSLTCTVSGFSLTNYGLHWIRQPPGKCLEWIGVIWSGGKTDYNPSLKSRVTISKDTSKNQFSLKLSSVQAADTAVYYCAKYDYDDSLDYWGQGTLVTVSSGGGGSGGGGSGGGGSGGGGSDIQMTQSPSSLSASVGDRVTITCHASQNINFWLSWYQQKPGKAPKLLIYEASNLHTGVPSRFSGSGSGTRFTLTISSLQPEDIATYYCQQSHSYPLTFGCGTKLEIKGSDKTHTCPPCPAPELLGGPSVFLFPPKPKDTLMISRTPEVTCVVVDVSHEDPEVKFNWYVDGVEVHNAKTKPREEQYNSTYRVVSVLTVLHQDWLNGKEYKCKVSNKALPAPIEKTISKAKGQPREPRVYTLPPCRDELTKNQVSLTCLVKGFYPSDIAVEWESNGQPENNYKTTPPVLVSDGSFTLYSKLTVDKSRWQQGNVFSCSVMHEALHNHYTQKSLSLSPG
heavy: EVQLVESGGGLVKPGGSLRLSCAASGFTFSSYSMNWVRQAPGKGLEWVSSISSSSSYIYYADSVKGRFTISRDNAKNSLYLQMNSLRAEDTAVYYCARGAPIGAAAGWFDPWGQGTLVTVSSASTKGPSVFPLAPSSKSTSGGTAALGCLVKDYFPEPVTVSWNSGALTSGVHTFPAVLQSSGLYSLSSVVTVPSSSLGTQTYICNVNHKPSNTKVDKKVEPKSCDKTHTCPPCPAPELLGGPSVFLFPPKPKDTLMISRTPEVTCVVVDVSHEDPEVKFNWYVDGVEVHNAKTKPREEQYNSTYRVVSVLTVLHQDWLNGKEYKCKVSNKALPAPIEKTISKAKGQPREPQVCTLPPSRDELTENQVSLTCLVKGFYPSDIAVEWESNGQPENNYKTTPPVLDSDGSFFLYSWLTVDKSRWQQGNVFSCSVMHEALHNHYTQKSLSLSPG
light: DIQMTQSPSSVSASVGDRVTITCRASQGISSWLAWYQQKPGKAPKLLIYAASSLQSGVPSRFSGSGSGTDFTLTISSLQPEDFATYYCQQGVSFPRTFGGGTKVEIKRTVAAPSVFIFPPSDEQLKSGTASVVCLLNNFYPREAKVQWKVDNALQSGNSQESVTEQDSKDSTYSLSSTLTLSKADYEKHKVYACEVTHQGLSSPVTKSFNRGEC
notes: Trispecific F3' format: CLEC12A scFv-Fc paired with NKG2D Fab-Fc; Stressed and control samples of the stability studies are the same molecule; also called AB0237
Kd (mFc-hNKG2D [1]): 675 nM
koff (mFc-hNKG2D [1]): 0.127 s⁻¹
kon (mFc-hNKG2D [1]): 188000 M⁻¹ s⁻¹

B2: AB0192 TriNKET (other)
chain: EVQLVESGGGVVQPGGSLRLSCAASGFTFNAFGMHWVRQAPGKCLEWVAFISSGSTSIYYANTVKGRFTISRDNSKNTLYLQMNSLRAEDTAVYYCARDGYPTGGAMDYWGQGTSVTVSSGGGGSGGGGSGGGGSGGGGSDIQMTQSPSSLSASVGDRVTITCKASQDIYNYLSWFQQKPGKAPKPLIYRANILVSGVPSRFSGSGSGQDYTFTISSLQPEDIATYYCLQFDAFPFTFGCGTKLEIKGSDKTHTCPPCPAPELLGGPSVFLFPPKPKDTLMISRTPEVTCVVVDVSHEDPEVKFNWYVDGVEVHNAKTKPREEQYNSTYRVVSVLTVLHQDWLNGKEYKCKVSNKALPAPIEKTISKAKGQPREPRVYTLPPCRDELTKNQVSLTCLVKGFYPSDIAVEWESNGQPENNYKTTPPVLVSDGSFTLYSKLTVDKSRWQQGNVFSCSVMHEALHNHYTQKSLSLSPG
heavy: B1 heavy
light: B1 light
notes: the condition stands under assay; also called AB0192 Lot AB0192-005
Kd (Human CLEC12A-His): 1.66 nM
koff (Human CLEC12A-His): 0.00128 s⁻¹
kon (Human CLEC12A-His): 768000 M⁻¹ s⁻¹
Kd (Human CD16a V158): 173 nM
koff (Human CD16a V158): 0.0191 s⁻¹
kon (Human CD16a V158): 110000 M⁻¹ s⁻¹
Kd (mFc-hNKG2D [2]): 779 nM
koff (mFc-hNKG2D [2]): 0.121 s⁻¹
kon (mFc-hNKG2D [2]): 156000 M⁻¹ s⁻¹
Kd (De-glycosylated CLEC12A): 0.27 nM
koff (De-glycosylated CLEC12A): 0.000348 s⁻¹
kon (De-glycosylated CLEC12A): 1.31e+06 M⁻¹ s⁻¹

Next, values leading:

kon [3]: 1.03e+07 M⁻¹ s⁻¹
Kd [4]: 954 nM and 823 nM and 930 nM and 895 nM
Kd [5]: 1340 nM and 1020 nM and 1600 nM and 1060 nM
Kd [6]: 1 nM
Kd (Human CD16b (FcγRIIIb)): 10300 nM and 8800 nM and 7400 nM
B3: AB0089 TriNKET (bispecific antibody, human IgG1, kappa)
chain: B1 chain with S53V, K56A, K71V, Y98G, D101G, S103T, R207D, I220F
heavy: B1 heavy
light: B1 light
notes: F3' format heterodimer of three chains; human IgG1 Fc with EW-RVT and Y349C/S354C mutations; also called AB0089 Lot AB0089-002; CLEC12A TriNKET AB0089

EC50 [7]: 3.2 nM
fold lower EC50 than F3'-1295 [8]: ~2 fold
Response (RU) (HER2): 0.1 RU
Response (RU) (BCMA): 0.2 RU
Response (RU) (CD33): 0.2 RU
B4: F3'-1602 TriNKET (other)
chain: B1 chain
heavy: B1 heavy
light: B1 light
notes: CLEC12A scFv-Fc, NKG2D A49MI Fab-Fc, human IgG1 Fc; also called AB0237
